Laboratory results reported in article PMC4038756 (Theranostics, 2014).
Values joined by “and” are separate entries in the source; they are usually repeats but may differ in a detail not shown here. Identical values can stand only once.

How the values were obtained:
Assay type in all cases: in vivo, NOD/SCID mice
[1] = Small animal PET/CT imaging, H460 tumor bearing mice; conditions: NOD/SCID, mouse, iv, total radioactivity
H460 (αvβ6^-) xenografts = assay: as above; conditions: H460 tumor bearing mice, quantitative PET, mean ± s.d., n = 3
[2] = system: H2009 (αvβ6^+) xenografts; assay: Small animal PET/CT imaging, H2009 tumor bearing mice; conditions: for Tumor uptake: quantitative PET, mean ± s.d.; for Tumor uptake / Tumor/Lung: n = 3; for Tumor/Lung: ratio of PET uptakes
[3] = as above; conditions: NOD/SCID, mouse, iv, total radioactivity
[4] = H2009 tumor bearing mice, 1 h p.i.
[5] = H2009 tumor bearing mice, 4 h p.i.
[6] = H2009 tumor bearing mice, 24 h p.i.

SMILES: N=C(N)NCCC[C@@H]1NC(=O)[C@H](CCCCNC(=O)CCC(C(=O)O)N2CCCN3CCN(CCCN(C(CCC(=O)NCCCC[C@@H]4NC(=O)[C@@H](Cc5ccc(O)cc5)NC(=O)[C@H](CC(=O)O)NC(=O)CNC(=O)[C@H](CCCNC(=N)N)NC4=O)C(=O)O)CC3)CC2)NC(=O)[C@@H](Cc2ccc(O)cc2)NC(=O)[C@H](CC(=O)O)NC(=O)CNC1=O (some centres unmarked) [^64Cu-CB-TE2A-(c(RGDyK))2, metal not drawn, reference compound]
- tissue uptake at 1 h ([1]; heart): 1.9 ± 0.72 %ID/g
- tissue uptake at 4 h ([1]; heart): 0.54 ± 0.26 %ID/g
- tissue uptake at 24 h ([1]; heart): 0.42 ± 0.05 %ID/g
- tissue uptake at 1 h ([1]; kidney): 4.33 ± 1 %ID/g
- tissue uptake at 4 h ([1]; kidney): 1.8 ± 0.57 %ID/g
- tissue uptake at 24 h ([1]; kidney): 1.2 ± 0.14 %ID/g
- tissue uptake at 1 h ([1]; liver): 2.13 ± 0.25 %ID/g
- tissue uptake at 4 h ([1]; liver): 1.61 ± 0.41 %ID/g
- tissue uptake at 24 h ([1]; liver): 2.05 ± 0.07 %ID/g
- tissue uptake at 1 h ([1]; lung): 0.68 ± 0.02 %ID/g
- tissue uptake at 4 h ([1]; lung): 0.48 ± 0.06 %ID/g
- tissue uptake at 24 h ([1]; lung): 0.3 ± 0.01 %ID/g
- tissue uptake at 1 h ([1]; muscle): 0.39 ± 0.06 %ID/g
- tissue uptake at 4 h ([1]; muscle): 0.31 ± 0.04 %ID/g
- tissue uptake at 24 h ([1]; muscle): 0.27 ± 0.03 %ID/g
- Tumor uptake (H460 (αvβ6^-) xenografts; 1 h p.i.): 1.64 ± 0.20 %ID/g
- Tumor uptake (H460 (αvβ6^-) xenografts; 4 h p.i.): 1.09 ± 0.24 %ID/g
- Tumor uptake (H460 (αvβ6^-) xenografts; 24 h p.i.): 0.7 %ID/g and 0.72 ± 0.10 %ID/g
- Tumor uptake [2, 4]: 1.58 ± 0.13 %ID/g
- Tumor uptake [2, 5]: 1.07 ± 0.21 %ID/g
- Tumor uptake [2, 6]: 0.7 %ID/g and 0.70 ± 0.29 %ID/g
- tissue uptake at 1 h ([3]; heart): 1.67 ± 0.13 %ID/g
- tissue uptake at 4 h ([3]; heart): 0.58 ± 0.13 %ID/g
- tissue uptake at 24 h ([3]; heart): 0.4 ± 0.12 %ID/g
- tissue uptake at 1 h ([3]; kidney): 3.43 ± 0.25 %ID/g
- tissue uptake at 4 h ([3]; kidney): 1.35 ± 0.54 %ID/g
- tissue uptake at 24 h ([3]; kidney): 0.93 ± 0.09 %ID/g
- tissue uptake at 1 h ([3]; liver): 2.56 ± 0.41 %ID/g
- tissue uptake at 4 h ([3]; liver): 1.97 ± 0.19 %ID/g
- tissue uptake at 24 h ([3]; liver): 1.65 ± 0.35 %ID/g
- tissue uptake at 1 h ([3]; lung): 0.7 ± 0.05 %ID/g
- tissue uptake at 4 h ([3]; lung): 0.61 ± 0.17 %ID/g
- tissue uptake at 24 h ([3]; lung): 0.39 ± 0.18 %ID/g
- tissue uptake at 1 h ([3]; muscle): 0.41 ± 0.04 %ID/g
- tissue uptake at 4 h ([3]; muscle): 0.26 ± 0.12 %ID/g
- tissue uptake at 24 h ([3]; muscle): 0.24 ± 0.08 %ID/g

SMILES: CC(C)C[C@H](NC(=O)[C@H](CCC(N)=O)NC(=O)[C@H](CCCNC(=N)N)NC(=O)[C@H](CC(C)C)NC(=O)[C@@H](NC(=O)[C@H](C)NC(=O)[C@H](CC(C)C)NC(=O)[C@H](CC(=O)O)NC(=O)CNC(=O)[C@@H](N)CCCNC(=N)N)[C@@H](C)O)C(=O)NCCOCCOCCOCCOCCOCCOCCOCCOCCOCCOCCOCCOCCC(=O)N[C@@H](CSC1CC(=O)N(CCC(=O)NCCCC[C@H](NC(=O)CCN2C(=O)CC(SC[C@H](NC(=O)CCOCCOCCOCCOCCOCCOCCOCCOCCOCCOCCOCCOCCNC(=O)[C@H](CC(C)C)NC(=O)[C@H](CCC(N)=O)NC(=O)[C@H](CCCNC(=N)N)NC(=O)[C@H](CC(C)C)NC(=O)[C@@H](NC(=O)[C@H](C)NC(=O)[C@H](CC(C)C)NC(=O)[C@H](CC(=O)O)NC(=O)CNC(=O)[C@@H](N)CCCNC(=N)N)[C@@H](C)O)C(N)=O)C2=O)C(=O)NCCC(=O)N[C@@H](CSC2CC(=O)N(CCNC(=O)CCC(C(=O)O)N3CCCN4CCN(CCCN(CC(=O)O)CC4)CC3)C2=O)C(N)=O)C1=O)C(N)=O (some centres unmarked) [^64Cu-D10, metal not drawn]
- tissue uptake at 1 h ([1]; heart): 1.41 ± 0.43 %ID/g
- tissue uptake at 4 h ([1]; heart): 0.77 ± 0.09 %ID/g
- tissue uptake at 24 h ([1]; heart): 0.47 ± 0.09 %ID/g
- tissue uptake at 1 h ([1]; kidney): 43.3 ± 5.4 %ID/g
- tissue uptake at 4 h ([1]; kidney): 50.1 ± 3.87 %ID/g
- tissue uptake at 24 h ([1]; kidney): 19.8 ± 2.38 %ID/g
- tissue uptake at 1 h ([1]; liver): 2.63 ± 0.92 %ID/g
- tissue uptake at 4 h ([1]; liver): 2.3 ± 0.26 %ID/g
- tissue uptake at 24 h ([1]; liver): 1.83 ± 0.15 %ID/g
- tissue uptake at 1 h ([1]; lung): 1.33 ± 0.3 %ID/g
- tissue uptake at 4 h ([1]; lung): 0.77 ± 0.07 %ID/g
- tissue uptake at 24 h ([1]; lung): 0.45 ± 0.17 %ID/g
- tissue uptake at 1 h ([1]; muscle): 0.75 ± 0.24 %ID/g
- tissue uptake at 4 h ([1]; muscle): 0.31 ± 0.06 %ID/g
- tissue uptake at 24 h ([1]; muscle): 0.33 ± 0.08 %ID/g
- Tumor uptake (H460 (αvβ6^-) xenografts; 1 h p.i.): 0.86 ± 0.21 %ID/g
- Tumor uptake (H460 (αvβ6^-) xenografts; 4 h p.i.): 0.52 ± 0.05 %ID/g
- Tumor uptake (H460 (αvβ6^-) xenografts; 24 h p.i.): 0.39 ± 0.04 %ID/g
- increase of kidney uptake as compared to 64Cu-M10 ([2]; H2009 tumor bearing mice, 1 h, 4 h, 24 h p.i.): ~6 fold
- Tumor uptake [2, 4]: 1.53 ± 0.15 %ID/g
- Tumor/Lung [2, 4]: 0.8 ± 0.25
- Tumor uptake [2, 5]: 1.2 ± 0.26 %ID/g
- Tumor/Lung [2, 5]: 1.2 ± 0.31
- Tumor uptake [2, 6]: 0.89 ± 0.26 %ID/g
- Tumor/Lung [2, 6]: 1.4 ± 0.34
- tumor uptake increase as compared to 64Cu-M10 ([2]; H2009 tumor, all three time points (1 h, 4 h, 24 h p.i.)): ~3 fold
- tissue uptake at 1 h ([3]; heart): 1.26 ± 0.37 %ID/g
- tissue uptake at 4 h ([3]; heart): 0.79 ± 0.27 %ID/g
- tissue uptake at 24 h ([3]; heart): 0.42 ± 0.1 %ID/g
- tissue uptake at 1 h ([3]; kidney): 43.5 ± 1.8 %ID/g
- tissue uptake at 4 h ([3]; kidney): 39.3 ± 5.66 %ID/g
- tissue uptake at 24 h ([3]; kidney): 21.4 ± 0.57 %ID/g
- tissue uptake at 1 h ([3]; liver): 2 ± 0.1 %ID/g
- tissue uptake at 4 h ([3]; liver): 1.56 ± 0.11 %ID/g
- tissue uptake at 24 h ([3]; liver): 1.01 ± 0.14 %ID/g
- tissue uptake at 1 h ([3]; lung): 1.86 ± 0.2 %ID/g
- tissue uptake at 4 h ([3]; lung): 0.99 ± 0.18 %ID/g
- tissue uptake at 24 h ([3]; lung): 0.62 ± 0.23 %ID/g
- tissue uptake at 1 h ([3]; muscle): 0.8 ± 0.11 %ID/g
- tissue uptake at 4 h ([3]; muscle): 0.4 ± 0.03 %ID/g
- tissue uptake at 24 h ([3]; muscle): 0.27 ± 0.13 %ID/g
